Results: article PMC4622665 (mAbs, 2014)

These binders were tested against human formyl peptide receptor 1 (human, UniProt P21462) (assay: FMAT competition binding on cells).
Chain of human formyl peptide receptor 1 (P21462 whole entry): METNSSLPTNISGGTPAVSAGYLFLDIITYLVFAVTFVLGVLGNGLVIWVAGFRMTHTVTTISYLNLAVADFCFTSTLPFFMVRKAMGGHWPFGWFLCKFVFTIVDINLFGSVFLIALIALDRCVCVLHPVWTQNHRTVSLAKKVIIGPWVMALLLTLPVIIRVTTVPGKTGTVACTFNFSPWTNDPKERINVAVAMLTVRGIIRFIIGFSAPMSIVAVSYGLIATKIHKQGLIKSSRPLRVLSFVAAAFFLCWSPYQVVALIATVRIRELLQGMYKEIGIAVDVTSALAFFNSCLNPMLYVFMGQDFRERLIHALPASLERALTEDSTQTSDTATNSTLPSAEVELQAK

IC50	Binder
13 nM	Fpro0084 IgG (antibody, V domains shown) VH: EVQLVESGGGLVKPGGSLRLSCAASGFTFSNAWMNWVRQAPGKGLEWVGRIKSKTDGGAADYAAPVKGRFTISRDDSKNTLYLQMNSLKTEDTAVYYCTTDQLGYDFWSGYYTDTLYYYFGMDVWGPGTTVTVSS VL: DIVMTQSPLSLPVTPGEPASISCRSSQQLQAYDGHNYLDWYLQKPGQSPQVLIYLGSNRASGVPDRFSGSGSGTDFTLKISRVEAEDVGVYYCMQALQTPLTFGGGTKVEIK
32 nM	Hy38-1 IgG1 (antibody, V domains shown) VH: EVQLVESGGGLVKPGGSLRLSCAASGFTFSNAWMNWVRQAPGKGLEWVGRIKSKTDGGAADYAAPVKGRFTISRDDSKNTLYLQMNSLKTEDTAVYYCTTDQLGYDFWSGYYTDTLYYYFGMDVWGPGTTVTVSS VL: not shown
14 nM	Fpro0067 IgG (antibody, V domains shown) VH: EVQLVESGGGLVKPGGSLRLSCAASGFTFSNAWMNWVRQAPGKGLEWVGRIKSKTDGGAADYAAPVKGRFTISRDDSKNTLYLQMNSLKTEDTAVYYCTTDQLGYDFWSGYYTDTLYYYFGMDVWGPGTTVTVSS VL: DIVMTQSPLSLPVTPGEPASISCRSSQPLLAMDGHNYLDWYLQKPGQSPQVLIYQSKWRASGVPDRFSGSGSGTDFTLKISRVEAEDVGVYYCMQALQTPLTFGGGTKVEIK
